Data taken from patent US20170088602A1 (Bristol-Myers Squibb, published 2017).
Where two headings read alike, the source gives them in different places.

T1: human BMP-11 (GDF-11; R&D Systems) (human, UniProt O95390 299-407)
T1 sequence (looked up): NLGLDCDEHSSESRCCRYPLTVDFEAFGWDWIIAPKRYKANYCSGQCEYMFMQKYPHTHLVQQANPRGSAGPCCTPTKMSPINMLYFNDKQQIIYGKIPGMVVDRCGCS

T2: human myostatin (mature, recombinant; R&D Systems) (human, UniProt O14793 267-375)
T2 sequence: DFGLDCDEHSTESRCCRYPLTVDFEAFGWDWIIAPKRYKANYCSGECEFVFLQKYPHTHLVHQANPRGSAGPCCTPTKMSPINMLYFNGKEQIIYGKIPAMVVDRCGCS

T3: human Activin A (R&D Systems) (human, UniProt P08476 311-426)
T3 sequence (looked up): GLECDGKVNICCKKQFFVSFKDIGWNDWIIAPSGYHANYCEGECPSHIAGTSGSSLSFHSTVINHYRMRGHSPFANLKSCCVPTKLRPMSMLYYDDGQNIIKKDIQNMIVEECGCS


Experiments:
[1] = target: T1, human BMP-11 (GDF-11; R&D Systems); experiment: SPR Format A; 100 nM BMP11 alone
Protocol: (§1) Competition SPR: Competitive binding assays to evaluate the ability of anti-myostatin Adnectins to compete with Type I and Type II receptors for binding to myostatin or BMP11, as a surrogate for myostatin, were also conducted using SPR on a Biacore T100 instrument, in two different experimental formats. In “SPR Format A”, sensor chip surfaces were prepared by immobilizing 100 ug/ml protein A (Pierce) in 10 mM acetate pH 4.5 to 4500 RU on a CM5 sensor chip (Biacore/GE Healthcare) using standard ethyl(dimethylaminopropyl) carbodiimide (EDC)/N-hydroxysuccinimide (NHS) chemistry, with ethanolamine blocking. […] The running buffer for immobilization and competition experiments was 10 mM HEPES, 150 mM NaCl, 3 mM EDTA, and 0.05% v/v Surfactant P20, pH 7.4, and surfaces were regenerated between cycles using two injections of 10 mM glycine pH 1.5 for 30 s at 30 μl/min.

[2] = target: T1, human BMP-11 (GDF-11; R&D Systems); experiment: SPR Format A; 100 nM BMP11 with 200 nM ATI-1523 as competitor
Protocol: as §1

[3] = target: T2, human myostatin (mature, recombinant; …); experiment: cell-based or functional assay
[4] = target: T2, human myostatin (mature, recombinant; …); experiment: HTRF competition binding assay, alanine mutant against 3116_A06
[5] = target: T2, human myostatin (mature, recombinant; …); experiment: cell-based or functional assay; remark: listed apart in the source
[6] = target: T2, human myostatin (mature, recombinant; …); experiment: competitive HTRF, alanine scan
[7] = target: T3, human Activin A (R&D Systems); experiment: SPR format A, 25C
Outline: (§2)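 Fc-fusion captured on an anti-human Fc antibody CM5 surface; anti-myostatin Adnectin injected over a concentration range in HBSP buffer. Regeneration used two 30 s pulses of 3M MgCl₂; reference-subtracted sensorgrams fitted to a 1:1 binding model.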

[8] = target: T2, human myostatin (mature, recombinant; …); experiment: SPR format A, 25C
Outline: as §2

[9] = target: T1, human BMP-11 (GDF-11; R&D Systems); experiment: SPR format A, 25C
Outline: as §2

[10] = target: T3, human Activin A (R&D Systems); experiment: cell-based or functional assay
[11] = target: T2, human myostatin (mature, recombinant; …); experiment: cell-based or functional assay; remark: listed apart in the source
[12] = target: T1, human BMP-11 (GDF-11; R&D Systems); experiment: cell-based or functional assay
[13] = target: T2, human myostatin (mature, recombinant; …); experiment: cell-based or functional assay; remark: listed apart in the source
[14] = target: T3, human Activin A (R&D Systems); experiment: cell-based or functional assay; remark: listed apart in the source
[15] = target: T2, human myostatin (mature, recombinant; …); experiment: cell-based or functional assay; remark: listed apart in the source
[16] = target: T1, human BMP-11 (GDF-11; R&D Systems); experiment: cell-based or functional assay; remark: listed apart in the source

Row | Binder | Myostatin ARE-luc IC50 [5] [nM] | IC50 [6] [nM] | binding result [7] | Kd [8] [nM] | Kd [9] [nM] | pSmad2 IC50, 12-point [13] [nM] | ARE-luciferase IC50 [14] [nM] | ARE-luciferase IC50 [15] [nM] | ARE-luciferase IC50 [16] [nM] | further results
1 | ActRIIB-Fc (produced in house) (Fc fusion, UniProt Q13705 19-134, looked up, not shown: a dimerising Fc or GST) SGRGEAETRECIYYNANWELERTNQSGLERCEGEQDKRLHCYASWRNSSGTIELVKKGCWLDDFNCYDRQECVATEENPQVYFCCCEGNFCNERFTHLPEAGGPEVTYEPPPTAPT |  |  |  |  |  |  |  |  |  | SPR binding response (normalized) [1]: 100%; SPR binding response (normalized) [2]: 189%
2 | 3116_A06 G30A (designed binder) MGVSDVPRDLEVVAATPTSLLISWSLPHQAKANYYRITYGETGGNSPVQEFTVPGRGVTATISGLKPGVDYTITVYAVTVTDTGYLKYKPISINYRTEIDKPSQHHHHHH | 40 | 5.1 |  |  |  |  |  |  |  | ARE-luciferase cell-based assay, IC50 relative to parent sequence [3]: > 10 fold; fold increase in IC50 relative to the parental sequence (WT) [4]: > 10 fold
3 | 3116_A06 T81A (designed binder) MGVSDVPRDLEVVAATPTSLLISWSLPHQGKANYYRITYGETGGNSPVQEFTVPGRGVTATISGLKPGVDYTITVYAVTVADTGYLKYKPISINYRTEIDKPSQHHHHHH | 32 | 4.9 |  |  |  |  |  |  |  | ARE-luciferase cell-based assay, IC50 relative to parent sequence [3]: > 10 fold; fold increase in IC50 relative to the parental sequence (WT) [4]: > 10 fold
4 | 3116_A06 V80A (designed binder) MGVSDVPRDLEVVAATPTSLLISWSLPHQGKANYYRITYGETGGNSPVQEFTVPGRGVTATISGLKPGVDYTITVYAVTATDTGYLKYKPISINYRTEIDKPSQHHHHHH | > 100 | 4 |  |  |  |  |  |  |  | fold increase in IC50 relative to the parental sequence (WT) [4]: > 10 fold
5 | 3116_A06 Y88A (designed binder) MGVSDVPRDLEVVAATPTSLLISWSLPHQGKANYYRITYGETGGNSPVQEFTVPGRGVTATISGLKPGVDYTITVYAVTVTDTGYLKAKPISINYRTEIDKPSQHHHHHH | > 100 | 11 |  |  |  |  |  |  |  | fold increase in IC50 relative to the parental sequence (WT) [4]: > 10 fold
6 | 3116_A06 Y85A (designed binder) MGVSDVPRDLEVVAATPTSLLISWSLPHQGKANYYRITYGETGGNSPVQEFTVPGRGVTATISGLKPGVDYTITVYAVTVTDTGALKYKPISINYRTEIDKPSQHHHHHH | 5.5 | 2 |  |  |  |  |  |  |  | ARE-luciferase cell-based assay, IC50 relative to parent sequence [3]: > 10 fold
7 | ATI-1107 [40K 2-branch PEG] (designed binder, 40K 2-branch PEG on the Cys of the GSGC tail, cysteine mutant of 1979_B06) MGVSDVPRDLEVVAATPTSLLISWSLPHAGHVNYYRITYGETGGNSPVQEFTVPGRGVTATISGLKPGVDYTITVYAVTLTKSQMIHYMPISINYRTGSGCHHHHHH |  |  | no binding | 128 | ~300 |  |  |  |  | ARE-luciferase IC50 [10]: > 2000 nM; ARE-luciferase IC50 [11]: 19 nM; ARE-luciferase IC50 [12]: 888 nM
8 | 1979_B06 (designed binder, monoAdnectin with His6 tag; also called ATI-1133) MGVSDVPRDLEVVAATPTSLLISWSLPHAGHVNYYRITYGETGGNSPVQEFTVPGRGVTATISGLKPGVDYTITVYAVTLTKSQMIHYMPISINYRTEIDKPSQHHHHHH |  |  | no binding | 29 | 489 | 12.8 | 194 | 0.11 | 3.3 | 
9 | 2525_D05 (designed binder) MGVSDVPRDLEVVAATPTSLLISWSLPYAGHLNYYRITYGETGGNSPVQEFTVPGRGVTATISGLKPGVDYTITVYAVTLTKSQLIHYMPISINYRTEIDKPSQHHHHHH |  |  | no binding | 1.28 | 1.99 | 0.2 | > 1000 | 0.11 | 3.9 | 
10 | 2524_E10 (designed binder) MGVSDVPRDLEVVAATPTSLLISWSLPFAGHLNYYRITYGETGGNSPVQEFTVPGRGVTATISGLKPGVDYTITVYAVTLTRSKIIHYMPISINYRTEIDKPSQHHHHHH |  |  | no binding | 1.34 | 1.42 | 0.13 | > 1000 | 0.09 | 5.6 | 
11 | 2524_C11 (designed binder) MGVSDVPRDLEVVAATPTSLLISWTLPHAGLAHYYRITYGETGGNSPVQEFTVPGRGVTATISGLKPGVDYTITVYAVTLTNSEIILYKPISINYRTEIDKPSQHHHHHH |  |  | no binding | 0.62 | 0.67 | 0.14 | 765 | 0.1 | 0.89 | 
12 | 2524_H11 (designed binder) MGVSDVPRDLEVVAATPTSLLISWSLPHAGHAHYYRITYGETGGNSPVQEFTVPGRGVTATISGLKPGVDYTITVYAVTVSSTKVIVYLPISINYRTEIDKPSQHHHHHH |  |  | no binding | 1.12 | 1.22 | 0.11 | > 1000 | 0.03 | 6.2 | 
13 | 2062_G02 (designed binder, also called ATI-1134) MGVSDVPRDLEVVAATPTSLLISWVSPRGRARYYRITYGETGGNSPVQEFTVPGRGSTATISGLKPGVDYTITVYAVTIYRDGMSHHDPISINYRTEIDKPSQHHHHHH |  |  | no binding | 48.8 | 697 | 59.1 | > 1500 | 205 | 1500 | 
14 | 2523_G06 (designed binder) MGVSDVPRDLEVVAATPTSLLISWWAPLGLARYYRITYGETGGNSPVQEFTVPGRGSTATISGLKPGVDYTITVYAVTIFRTGMVQYDPISINYRTEIDKPSQHHHHHH |  |  | no binding | 1.47 | 10.7 | 0.78 | > 2000 | 4.2 | 46 | 
